Measurements published in the supplement of paper PMC7125110.
± gives the standard error. For some of these results: Variants at the floor of the assay were thinned out.

B1: glmS ribozyme (parent)
chain: AUAAAAGCGCCAGAACUACAGAAAUGUAGUUGACGAGGAGGAGGUUUAUCGAAUUUUCGGCGGAUGCCUCCAAA

Legend:
Details in all cases: with glucosamine-6-phosphate
glucosamine-6-phosphate [1] = variants of: B1; experiment: kcat; higher = faster cleavage; RNA array
How it was run: (§1)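 Tracking of barcoded ribozyme variants used a hybridised Cy3 probe at 37 °C, after in situ transcription by E. coli RNA polymerase on sequenced MiSeq chips. The flowed solution held 40 μM to 10 mM glucosamine-6-phosphate in HEPES/KCl/Mg(OAc)2 buffer, and imaging ran over ~14 h. kobs was taken from exponential decay fits of normalised per-tile medians, and kcat and KM from weighted Michaelis–Menten fits.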

glucosamine-6-phosphate [2] = variants of: B1; experiment: KM; higher = weaker cofactor use; RNA array
How it was run: as §1

glucosamine-6-phosphate [3] = variants of: B1; experiment: self-cleavage kobs at 40 uM GlcN6P; higher = faster cleavage; RNA array
How it was run: as §1

glucosamine-6-phosphate [4] = variants of: B1; experiment: self-cleavage kobs at 160 uM GlcN6P; higher = faster cleavage; RNA array
How it was run: as §1

glucosamine-6-phosphate [5] = variants of: B1; experiment: self-cleavage kobs at 640 uM GlcN6P; higher = faster cleavage; RNA array
How it was run: as §1

glucosamine-6-phosphate [6] = variants of: B1; experiment: self-cleavage kobs at 2500 uM GlcN6P; higher = faster cleavage; RNA array
How it was run: as §1

glucosamine-6-phosphate [7] = variants of: B1; experiment: self-cleavage kobs at 10000 uM GlcN6P; higher = faster cleavage; RNA array
How it was run: as §1

Variant	kcat (glucosamine-6-phosphate [1]) [s⁻¹]	KM (glucosamine-6-phosphate [2]) [µM]	self-cleavage kobs at 40 uM GlcN6P (glucosamine-6-phosphate [3]) [s⁻¹]	self-cleavage kobs at 160 uM GlcN6P (glucosamine-6-phosphate [4]) [s⁻¹]	self-cleavage kobs at 640 uM GlcN6P (glucosamine-6-phosphate [5]) [s⁻¹]	self-cleavage kobs at 2500 uM GlcN6P (glucosamine-6-phosphate [6]) [s⁻¹]	self-cleavage kobs at 10000 uM GlcN6P (glucosamine-6-phosphate [7]) [s⁻¹]
U47C U54C	0.00359 ± 0.00063	1240 ± 310	9.72e-05 ± 1.5e-05	0.000434 ± 7.2e-05	0.00141 ± 0.00017	0.00299 ± 0.00053	0.00275 ± 0.00046
U46A U69G	7.21e-05 ± 2.1e-05	–	–	–	0.000107 ± 1.7e-05	8.42e-05 ± 1.3e-05	4.27e-05 ± 1.3e-05
G43A C71U	< 1e-05	–	< 1e-05	–	–	–	–
C50G C67A	0.000178 ± 2.6e-05	–	9.53e-05 ± 1.2e-05	0.000153 ± 2e-05	0.000259 ± 3.2e-05	0.000183 ± 2.4e-05	0.000145 ± 1.9e-05
A14C U31G G40C	0.00179 ± 0.00038	1560 ± 520	5.2e-05 ± 1.1e-05	–	0.000477 ± 9.7e-05	0.00097 ± 0.00023	0.00184 ± 0.00041
C50G C70U	0.000103 ± 2.1e-05	–	8.81e-05 ± 1e-05	0.000129 ± 1.5e-05	–	0.000149 ± 1.4e-05	7.8e-05 ± 8.6e-06
U56A C61G	< 1e-05	–	–	–	–	–	–
G40C U56G	0.00124 ± 0.00014	1460 ± 280	3.52e-05 ± 6.5e-06	0.000146 ± 2.1e-05	0.000333 ± 3.5e-05	0.000869 ± 0.00011	0.00108 ± 9.7e-05
G37A U55G	0.0025 ± 0.0004	2980 ± 830	2.68e-05 ± 1.3e-05	0.000204 ± 6.7e-05	0.000401 ± 9.1e-05	0.00122 ± 0.0002	0.00188 ± 0.00028
U30C A53C	3.34e-05 ± 6.8e-06	–	–	< 1e-05	–	3.87e-05 ± 9.7e-06	2.78e-05 ± 9e-06
G32U C70A	4.97e-05 ± 4.6e-06	–	–	–	4.67e-05 ± 1.8e-05	5.83e-05 ± 1.3e-05	4.67e-05 ± 6.5e-06
A15G G37A	0.00317 ± 0.0014	–	8.19e-05 ± 9.7e-06	0.000154 ± 2.7e-05	0.000515 ± 7.3e-05	0.00123 ± 0.00023	0.00292 ± 0.00037
A14G A36U	1.56e-05 ± 2.2e-07	–	< 1e-05	< 1e-05	–	–	–
C16U U56G C68G	5.74e-05 ± 1.5e-05	–	–	–	9.61e-05 ± 2.8e-05	–	6.1e-05 ± 1.3e-05
A42G	0.0432 ± 0.015	1270 ± 530	0.00143 ± 3.4e-05	0.00406 ± 0.00021	0.0128 ± 0.00054	0.0238 ± 0.0016	0.0639 ± 0.0036
A42U	0.00024 ± 2.1e-05	1350 ± 270	< 1e-05	2.06e-05 ± 1.8e-06	7.53e-05 ± 1.4e-06	0.000187 ± 3.7e-06	0.000203 ± 2.9e-06

Variant	kcat (glucosamine-6-phosphate [1]) [s⁻¹]	KM (glucosamine-6-phosphate [2]) [µM]	self-cleavage kobs at 40 uM GlcN6P (glucosamine-6-phosphate [3]) [s⁻¹]	self-cleavage kobs at 160 uM GlcN6P (glucosamine-6-phosphate [4]) [s⁻¹]	self-cleavage kobs at 640 uM GlcN6P (glucosamine-6-phosphate [5]) [s⁻¹]	self-cleavage kobs at 2500 uM GlcN6P (glucosamine-6-phosphate [6]) [s⁻¹]	self-cleavage kobs at 10000 uM GlcN6P (glucosamine-6-phosphate [7]) [s⁻¹]
G29U A48C	1.88e-05 ± 3.6e-07	138 ± 42	< 1e-05	< 1e-05	–	–	1.85e-05 ± 7.6e-06
U55C U56G	0.0112 ± 0.0051	–	0.000172 ± 3.6e-05	0.000456 ± 6.4e-05	0.00134 ± 0.00022	0.00329 ± 0.00056	0.0103 ± 0.0016
G43A C68G	0.000174 ± 1.4e-05	993 ± 160	–	–	6.69e-05 ± 1.2e-05	0.000126 ± 2e-05	–
A6U G37U	< 1e-05	–	–	< 1e-05	–	< 1e-05	–
A15G C61G	< 1e-05	–	< 1e-05	< 1e-05	< 1e-05	< 1e-05	–
C16G C61U	< 1e-05	–	< 1e-05	< 1e-05	–	–	–
G41A C71G	0.000168 ± 7.8e-06	1080 ± 150	–	–	6.55e-05 ± 9.8e-06	0.000106 ± 2.1e-05	0.000154 ± 1.4e-05
G44U U54G	0.000306 ± 2.6e-05	986 ± 200	–	–	0.000127 ± 2.2e-05	0.000226 ± 4.8e-05	0.00027 ± 5.1e-05
U30G C70A	6.7e-05 ± 4.4e-06	410 ± 130	–	–	3.81e-05 ± 9.7e-06	6.45e-05 ± 9.7e-06	6.09e-05 ± 8.7e-06
A52U U56A	7.93e-05 ± 2e-05	–	< 1e-05	–	–	7.17e-05 ± 1.7e-05	6.73e-05 ± 9.7e-06
C11U A14C C70U	0.000322 ± 0.00016	–	–	–	0.000221 ± 4.6e-05	0.000599 ± 0.00016	0.000224 ± 6.8e-05
G32A G59U	1.15e-05 ± 1.2e-06	3350 ± 1300	–	–	–	–	–
G13U G29U U31C	1.48e-05 ± 3.5e-06	–	< 1e-05	–	–	–	–
C50G U56G	4.44e-05 ± 8.9e-06	–	–	4.35e-05 ± 1.5e-05	–	5.17e-05 ± 2.1e-05	–
A39U C70G	0.000797 ± 0.00021	1500 ± 720	4.48e-05 ± 9.1e-06	6.66e-05 ± 2e-05	0.000201 ± 3.6e-05	0.000522 ± 8.8e-05	0.000713 ± 0.0001
